The values below come from publication PMC12753717.

Assay [1] addresses soluble envelope protein ectodomain of yellow fever virus strain 17D with C-terminal 3C site and TwinStrep tag (yellow fever virus strain 17D). Kind of assay: SEC-MALS. A general note: In gel filtration, larger molecules generally elute earlier.
Assay [2] has as its target soluble envelope protein ectodomain of yellow fever virus strain Asibi with C-terminal 3C site and TwinStrep tag (yellow fever virus strain Asibi). Kind of assay: SEC-MALS.

Broadly, the stoichiometry N is the number of molecules, sites or subunits per partner or assembly.

In turn, “precursor peptide pr of yellow fever virus strain 17D” had a stoichiometry N in assay [1] of 1.

Take “precursor peptide pr of yellow fever virus strain Asibi, canonical furin cleavage product (pr1, 9.95 kDa)”: in assay [2], the stoichiometry N is 1.
